Common to all, as to assay: EMSA; Probes: 400 fmol RNA, 17 ug protein, 1x binding buffer (Molecular Probes E33075 kit), room temp 30 min, 5% native PAGE, SYBR Green; pre-mRNA: 500 ng RNA in 10 mM HEPES, 150 mM NaCl, 3 mM EDTA, 2 mM DTT, 10% glycerol, 1 mM PMSF, room temp 30 min; pH not stated
Common to all, as to conditions: protein: recombinant; tags: N-terminal His6-SUMO
(In general: Mobility shift assays separate free from complexed probe on a gel.)

The target in one series is T1, GRP20 (Arabidopsis thaliana, UniProt Q7DV38 1-153).
T1 sequence: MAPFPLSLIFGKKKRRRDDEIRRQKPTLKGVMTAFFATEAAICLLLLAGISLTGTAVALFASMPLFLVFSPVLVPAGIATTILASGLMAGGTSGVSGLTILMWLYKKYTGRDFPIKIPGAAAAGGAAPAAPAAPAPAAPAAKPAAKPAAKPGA

For a further series, the target named is T2, GRP20ΔRBD (Arabidopsis thaliana, UniProt Q7DV38 1-153, del92-115).
T2 sequence: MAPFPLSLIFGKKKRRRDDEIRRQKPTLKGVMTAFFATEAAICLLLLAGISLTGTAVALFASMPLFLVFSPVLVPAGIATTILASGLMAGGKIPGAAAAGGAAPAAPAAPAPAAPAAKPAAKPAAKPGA

Another series concerns the target T3, GRP20 (RBDm) (Arabidopsis thaliana, UniProt Q7DV38 1-153, M102A;W103A;Y105A;K106A;K107A).
T3 sequence: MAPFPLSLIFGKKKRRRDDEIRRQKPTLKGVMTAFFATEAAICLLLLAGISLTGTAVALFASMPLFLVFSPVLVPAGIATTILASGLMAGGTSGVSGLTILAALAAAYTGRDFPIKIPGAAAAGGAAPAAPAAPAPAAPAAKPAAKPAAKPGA

In a further series the target is T4, GRP20ΔHDR (Arabidopsis thaliana, UniProt Q7DV38 1-118).
T4 sequence: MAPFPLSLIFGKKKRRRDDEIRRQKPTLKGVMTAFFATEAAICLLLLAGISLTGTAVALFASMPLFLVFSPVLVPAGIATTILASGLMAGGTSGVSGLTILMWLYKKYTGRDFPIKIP

On to AUGAUAAUGCC (ssRNA) [AP1m-probe], for which the binding result in the series with GRP20 is “no binding”. GAAGAAGAAGAAG (ssRNA) [P1 (GA-rich consensus ES_C1)]: the binding result is reported as “no binding” with GRP20ΔRBD, “no binding” with GRP20 (RBDm), “binds” with GRP20ΔHDR and “binds” in the series with GRP20.

In the case of UUGAUUAUGU (ssRNA) [P2 (ES_C2)], the binding result in the series with GRP20 was “binds”. Same read-out and setting: the value for AGGAGAAGGCC (ssRNA) [AP1-probe] was “binds”. Same read-out and setting: then AUAUAUCUUU (ssRNA) [P3 (A3SS)], with “binds”.

These data come from PMC10808074, “Regulation of micro- and small-exon retention and other splicing processes by GRP20 for flower development”.
